From patent US20160137730A1 (Novartis, published 2016)

Assays:
[1] = molecular target: T1, recombinant human E-cadherin ECD (human, UniProt P12830 155-709); test: ELISA, ECD coated on plate, Fab-containing E. coli lysate
T1 construct: extracellular domain; also called E-cadherin (CDH1)
T1 sequence (looked up): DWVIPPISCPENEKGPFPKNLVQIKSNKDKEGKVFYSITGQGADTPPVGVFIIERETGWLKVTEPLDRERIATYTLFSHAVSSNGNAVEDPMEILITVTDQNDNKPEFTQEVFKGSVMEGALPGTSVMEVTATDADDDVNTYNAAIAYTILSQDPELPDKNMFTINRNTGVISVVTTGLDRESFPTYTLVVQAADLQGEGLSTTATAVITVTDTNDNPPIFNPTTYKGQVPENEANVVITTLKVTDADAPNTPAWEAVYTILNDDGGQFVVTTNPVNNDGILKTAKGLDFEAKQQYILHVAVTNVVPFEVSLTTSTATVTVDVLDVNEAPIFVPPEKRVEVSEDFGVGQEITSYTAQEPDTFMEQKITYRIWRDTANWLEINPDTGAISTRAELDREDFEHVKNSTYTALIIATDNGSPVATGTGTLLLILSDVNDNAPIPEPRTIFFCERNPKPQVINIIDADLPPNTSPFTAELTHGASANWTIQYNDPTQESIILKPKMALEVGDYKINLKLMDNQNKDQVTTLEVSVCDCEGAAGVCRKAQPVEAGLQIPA
Procedure: (§1) To assess specificity of binding to P-cadherin vs E-cadherin and N-cadherin, Maxisorp 384-well plates were o/n at 4° C. with recombinant human E-cadherin or N-cadherin ECD and Fab fragments were assayed using an enzyme-linked immunosorbent assay (ELISA) format. After washing, plates were blocked for 2 h with 5% skim milk in 1×PBST. Fab-containing E. coli lysates were added and binding allowed for 1 h at room temperature (RT). To detect bound Fab fragments, plates were washed 5× with TBST and AP-anti human IgG F(ab′)₂ was added in a 1/2500 dilution. After 1 h at RT, plates were washed 5× with TBST and AttoPhos substrate was added according to the manufacturers specifications. Plates were read in an ELISA reader 5 minutes after adding the substrate.

[2] = molecular target: T2, recombinant human N-cadherin ECD (human, UniProt P19022 160-724); test: as above
T2 construct: extracellular domain; also called N-cadherin (CDH2)
T2 sequence (looked up): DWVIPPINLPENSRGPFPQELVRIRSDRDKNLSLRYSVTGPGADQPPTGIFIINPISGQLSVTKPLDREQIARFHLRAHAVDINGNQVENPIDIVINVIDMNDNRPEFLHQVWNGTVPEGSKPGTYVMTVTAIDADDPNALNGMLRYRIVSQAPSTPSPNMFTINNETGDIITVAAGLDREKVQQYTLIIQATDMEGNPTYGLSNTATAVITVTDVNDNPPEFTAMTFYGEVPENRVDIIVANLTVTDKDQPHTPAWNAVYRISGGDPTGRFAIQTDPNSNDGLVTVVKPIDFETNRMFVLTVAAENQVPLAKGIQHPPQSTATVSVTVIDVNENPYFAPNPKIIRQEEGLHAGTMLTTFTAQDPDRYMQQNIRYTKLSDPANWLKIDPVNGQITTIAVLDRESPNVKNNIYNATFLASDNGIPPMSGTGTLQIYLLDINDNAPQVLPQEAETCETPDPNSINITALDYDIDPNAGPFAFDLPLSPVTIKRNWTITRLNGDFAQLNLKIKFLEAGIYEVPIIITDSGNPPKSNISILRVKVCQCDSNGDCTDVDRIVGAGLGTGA
Procedure: as §1

binding result [1]: no binding
binding result [2]: no binding
B1: NOV169N31Q Fab (Fab, V domains shown)
VH: QVQLQQSGPGLVKPSQTLSLTCAISGDSVSSQSAAWNWIRQSPSRGLEWLGRIYYRSKWYNDYALSVKSRITINPDTSKNQFSLQLNSVTPEDTAVYYCARGEGYGREGFAIWGQGTLVTVSS
VL: DIQMTQSPSSLSASVGDRVTITCRASQTISNTLAWYQQKPGKAPKLLIYAASNLQSGVPSRFSGSGSGTDFTLTISSLQPEDFATYYCQQYLSWFTFGQGTKVEIKR
notes: Expressed in E. coli; also called Fab fragment of NOV169N31Q
